For the assay, the target named is T1, CD47, biotin-conjugated antigen (Homo sapiens, UniProt Q08722, biotin-conjugated).
T1 construct: CD47; Probably the extracellular domain (surmise); also called antigen CD47; source: bought: Sino Biological Inc
Description: BLI; ForteBio Octet RED96; streptavidin-coated tips loaded with biotin-conjugated PD-L1 or CD47 (100 nM); antibodies or fusion proteins in solution at 25, 50, 75, 100, 125 and 150 nM; dissociation in PBS; 37 °C; global fit, KD = kd/ka. The conditions noted are these: both partners purified.

B1: anti-CD47 mAb (B6H12), positive control antibody made in-house (antibody, V domains shown)
VH: EVQLVESGGGLVQPGGSLRLSCAASGFTFSGYGMSWVRQAPGKGLEWVATITSGGTYTYYPDSVKGRFTISRDNAKNSLYLQMNSLRAEDTAVYYCARSLAGNAMDYWGQGTLVTVSS
VL: EIVLTQSPATLSLSPGERATLSCRASQTISDYLHWYQQKPGQAPRLLIKFASQSISGIPARFSGSGSGTDFTLTISSLEPEDFAVYYCQNGHGFPRTFGQGTKVEIK
notes: source: produced in-house from plasmids pUC57/B6H12-Lc and pUC57/B6H12-Hc
As to B1, the equilibrium dissociation constant (Kd) turned out to be 4.08 pM, the koff was found to be 3.99e-07 s⁻¹ and the on-rate constant (kon) turned out to be 97900 M⁻¹ s⁻¹.

The values are drawn from PMC9405206 (Biomedicines, 2022).
